Substitutions are numbered along the chain they refer to.
T1: recombinant histidine-tagged human E-selectin (Sino Biologicals; 13025-H08H) (human, UniProt P16581 22-556)
T1 construct: also called recombinant human E-selectin; soluble recombinant human E-selectin
T1 sequence (looked up): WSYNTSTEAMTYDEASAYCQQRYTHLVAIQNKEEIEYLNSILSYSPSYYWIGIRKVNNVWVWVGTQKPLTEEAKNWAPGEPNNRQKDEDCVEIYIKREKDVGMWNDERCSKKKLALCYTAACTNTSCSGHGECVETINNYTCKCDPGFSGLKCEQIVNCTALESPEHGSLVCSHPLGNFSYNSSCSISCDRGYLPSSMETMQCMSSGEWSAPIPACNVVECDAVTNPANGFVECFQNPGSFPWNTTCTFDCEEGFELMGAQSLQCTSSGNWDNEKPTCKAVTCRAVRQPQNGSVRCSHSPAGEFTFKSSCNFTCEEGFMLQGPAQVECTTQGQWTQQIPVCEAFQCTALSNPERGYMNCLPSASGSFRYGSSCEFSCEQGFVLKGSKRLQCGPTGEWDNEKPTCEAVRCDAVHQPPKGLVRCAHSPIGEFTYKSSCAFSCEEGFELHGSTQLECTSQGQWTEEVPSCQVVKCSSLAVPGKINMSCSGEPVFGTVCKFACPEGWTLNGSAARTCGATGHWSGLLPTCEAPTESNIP

T2: recombinant histidine-tagged cynomolgus monkey E-selectin (Sino Biologicals; 190169-C08H) (cynomolgus monkey, UniProt A0A2K5U7H9 22-554)
T2 construct: also called recombinant cynomolgus monkey E-selectin
T2 sequence: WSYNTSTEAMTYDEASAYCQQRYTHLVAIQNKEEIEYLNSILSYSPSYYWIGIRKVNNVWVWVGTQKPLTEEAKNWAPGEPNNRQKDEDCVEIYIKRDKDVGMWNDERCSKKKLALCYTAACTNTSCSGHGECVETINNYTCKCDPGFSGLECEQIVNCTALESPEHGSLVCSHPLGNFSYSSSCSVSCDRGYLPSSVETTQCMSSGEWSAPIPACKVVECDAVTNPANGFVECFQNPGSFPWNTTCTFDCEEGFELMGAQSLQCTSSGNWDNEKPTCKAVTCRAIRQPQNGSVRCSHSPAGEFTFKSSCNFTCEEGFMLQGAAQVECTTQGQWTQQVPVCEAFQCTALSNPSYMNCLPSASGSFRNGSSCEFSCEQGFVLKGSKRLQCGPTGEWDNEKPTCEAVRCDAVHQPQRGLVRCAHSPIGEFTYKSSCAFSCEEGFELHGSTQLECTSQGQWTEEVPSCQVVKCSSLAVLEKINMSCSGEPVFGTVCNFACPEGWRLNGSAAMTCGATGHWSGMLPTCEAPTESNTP

B1: anti-E-selectin antibody 0164 chimera (antibody, human IgG1, kappa, V domains shown)
VH: EVQLQQSGAEFGKPGTSVKLSCKVSGYNIRSSYMHWVNQRPGKGLEWIGRIDPANGNTIYAEKFKIKAILTADSSSNTAYMQLSQLKSDDTAIYFCAMDLYSTSEYWGQGVMVTVSS
VL: DIQMTQSPSFLSASVGDRVTINCKTSQNINRYLNWYQQKLGEAPKLLIYNANSLQTGIPSRFSASGSGTDFTLTINSLQPEDVATYFCLQDNSWPLTFGSGTKLEIKR
notes: rat VH/VL on effector-null human IgG1 and human kappa
B2: optimized anti-E-selectin antibody 1282 (antibody, human IgG1, kappa, V domains shown)
VH: EVQLVESGGGLVQPGGSLRLSCAASGYAIRSAYMHWVRQAPGKGLEWVARIDPANGNTIYVDSVEGRFTISADNAKNSAYLQMNSLRAEDTAVYYCAMDLYSTSEYWGQGTLVTVSS
VL: DIQMTQSPSSLSASVGDRVTITCKTSQNIERYLNWYQQKPGKAPKLLIYAASSLQSGVPSRFSGSGSGTDFTLTISSLQPEDFATYFCLQDNAWPLTFGQGTKVEIKR
notes: effector-null human IgG1, kappa
B3: optimized anti-E-selectin antibody 1448 (antibody, human IgG1, kappa, V domains shown)
VH: B2 VH with E65K, G66E
VL: B2 VL
notes: as for B2
B4: optimized anti-E-selectin antibody 1444 (antibody, human IgG1, kappa, V domains shown)
VH: B2 VH with E65T
VL: B2 VL
notes: as for B2
B5: optimized anti-E-selectin antibody 1284 (antibody, human IgG1, kappa, V domains shown)
VH: B2 VH with D62E
VL: B2 VL
notes: as for B2

These binders were tested against T1, recombinant histidine-tagged human … (assay: competition ELISA, His-tagged E-selectin on Ni-NTA plate vs HRP-conjugated sialyl Lewis A).
Method: (§1) Recombinant histidine-tagged E-selectin; cynomolgus monkey E-selectin (Sino Biologicals; 190169-C08H) and human E-selectin (Sino Biologicals; 13025-H08H) stock solutions were prepared to a final concentration of 3 μg/mL in phosphate buffered saline (PBS) without calcium and magnesium. One hundred μL per well of the diluted recombinant E-selectin protein was added into a Ni-NTA HisSorb 96 well plate (Qiagen, 35061) and plates were incubated on an orbital shaker at room temperature for 2 hours. Sialyl Lewis A polyacrylamide biotin, a synthetic E-selectin ligand (GlycoTech corporation 01-044), was conjugated to streptavidin HRP (horse radish peroxidase) (Ultra Streptavidin HRP, Thermo Scientific N504) and diluted in assay diluent containing 2 mM calcium chloride (BD OptEIA buffer; BD Biosciences, 555213).
(§2) Following the incubation, the plates were washed 5 times with 200 μL of wash buffer containing 2 mM of calcium chloride (50 mM TRIS [trisaminomethane]; 150 mM sodium chloride, 0.05% polysorbate 20, pH 7.4; 2 mM of calcium chloride). […] The final antibody concentration ranged from 200 nM to 0.09 nM and the final concentration of HRP conjugated Sialyl Lewis A was 5 μg/mL. Plates were washed as mentioned before, and 100 μL per well of 1-Step Ultra TMB substrate (Thermo Scientific, 34028) was added and incubated for 5 minutes at room temperature. Reactions were stopped with 100 μl of 2M sulfuric acid and absorbance read at 450 nm (Spectramax M5e). Data were analyzed and graphed using GraphPad Prism software (Version 8.0.2).

| IC50 [nM] | Binder |
| --- | --- |
| 3.39 | B1 |
| 3.39 | B2 |
| 2.96 | B3 |
| 3.01 | B4 |
| 3.59 | B5 |

What follows are binders tested against T2, recombinant histidine-tagged cynomolgus … in the same assay as above.
Method: as §1, §2

| IC50 [nM] | Binder |
| --- | --- |
| 3.29 | B1 |
| 3.23 | B2 |
| 2.74 | B3 |
| 2.91 | B4 |
| 3.39 | B5 |

Source: patent publication US20240076386A1 (Pfizer, published 2024)
